Measurements taken from US20230220073A1 (UCL BUSINESS, published 2023).
Residue numbers refer to the chain shown, from its start.

B1: Clone I chimeric ROR1 antibody (antibody, V domains shown)
VH: EVQLVESGGGSVQPGRSLKLSCAASGFTFSDYNMAWVRQAPKKGPEWVATITYDVHNAYYRDSVKGRFTISRDDAKSTLYLQMDSLRSEDTATYFCARPGAYWGQGTLVTVSS
VL: DIQLTQSPSSMSASLGDRVSLTCQSSQGIGKYLSWYQHKPGKPPKAMIYYATKLADGVPSRFSGSRSGSDFSLTISSLESEDIAIYYCLQFDDYPWTFGGGTKLELK
B2: R12 (previously published ROR1 antibody) (antibody, V domains shown)
VH: QEQLVESGGRLVTPGGSLTLSCKASGFDFSAYYMSWVRQAPGKGLEWIATIYPSSGKTYYATWVNGRFTISSDNAQNTVDLQMNSLTAADRATYFCARDSYADDGALFNIWGPGTLVTISS
VL: ELVLTQSPSVSAALGSPAKITCTLSSAHKTDTIDWYQQLQGEAPRYLMQVQSDGSYTKRPGVPDRFSGSSSGADRYLIIPSVQADDEADYYCGADYIGGYVFGGGTQLTVTG
B3: D10 (previously published ROR1 antibody, the prototype of Cirmtuzumab) (antibody, V domains shown)
VH: QVQLKESGPGLVAPSQTLSITCTVSGFSLTSYGVHWVRQPPGKGLEWLGVIWAGGFTNYNSALKSRLSISKDNSKSQVLLKMTSLQTDDTAMYYCARRGSSYSMDYWGQGTSVIVSS
VL: EIVLSQSPAITAASLGQKVTITCSASSNVSYIHWYQQRSGTSPRPWIYEISKLASGVPVRFSGSGSGTSYSLTISSMEAEDAAIYYCQQWNYPLITFGSGTKLEIQ
B4: Clone O chimeric ROR1 antibody (antibody, V domains shown)
VH: QVRLLQSGAALVKPGASVKMSCKASGYTFTDYWMSWVKQSHGKSLEWIGEIYPNSGATNFNEKFKDKATLTVDRSTSTAYMELSRLTSEDSAIYYCARGFPNNYLSWFAYWGQGTLVTVSS
VL: DIVLTQSPALAVSLEQRVTIACKTSQNVDNHGISYMHWYQQKSGQEPKLLIYEGSNLAVGIPARFSGSGSGTDFTLTIDPVEADDIETYYCQQSKDDPRTFGGGTKLELK
B5: Clone G5 chimeric ROR1 antibody (antibody, V domains shown)
VH: EVQVVESGGGLVQPGRSLKLSCVPSGFTFNNYWMTWIRQAPGKAPEWVASISNTGGSTFYPDSVRGRFSISRDNTKGTLYLHMTSLRSEDTATYYCIRNMDAWGQGTSVTVSS
VL: DIQLTQSPSTLSASLGERVTISCRASQSISNSLNWYQQKPDGTVKRLIYSTSTLESGVPSRFSGSGSGTDFSLSISSLESEDFAMYYCLQFATYPQVTFGSGTKLEIK
B6: 4a5 (previously published ROR1 antibody) (antibody, V domains shown)
VH: EVKLVESGGGLVKPGGSLKLSCAASGFTFSSYAMSWVRQIPEKRLEWVASISRGGTTYYPDSVKGRFTISRDNVRNILYLQMSSLRSEDTAMYYCGRYDYDGYYAMDYWGQGTSVTVSS
VL: DIKMTQSPSSMYASLGERVTITCKASPDINSYLSWFQQKPGKSPKTLIYRANRLVDGVPSRFSGGGSGQDYSLTINSLEYEDMGIYYCLQYDEFPYTFGGGTKLEMK
B7: Clone B chimeric ROR1 antibody (antibody, V domains shown)
VH: DVQLEESGGGLVRPGRSLKLSCADSGVNFSNRGMAWVRQAPTKGLEWVATISYDGRIIYYRDSVKGRFSISRENAKSTLYLQMDSLRSEDTATYYCARHPIAADWYFDFWGPGTMVTVSS
VL: DIRMTQSPASLSASLGETVTIECLTSEDIYSDLAWFQQKPGKSPQLLIYDANSLQNGVPSRFGGCGSGTQYSLQISSLQSEDVATYFCQQYKNYPPTFGGGTKLVLK
notes: also called B5
B8: Clone J chimeric ROR1 antibody (antibody, V domains shown)
VH: DVKLVESGGGLLKPGGSLKLSCVASGFSFSKYWMHWVRQAPGQGLEWIAEIEYDGTETNYAPSIKDRFTISRDNAKNTLYLQMSNVRFEDAATYFCTTEEMHTTDYYYGFAYWGQGTLVTVSS
VL: DIVLTQSPALAVSVGQRATISCRASQSVSISRYDFMHWYQQKPGQQPKLLIYRASNLASGIPARFSGSGSGTDFTLTINPVQADDIATYYCQQNRESPRTFGGGTKLELK
notes: also called J6
B9: Clone E7 chimeric ROR1 antibody (antibody, V domains shown)
VH: GKLVESGGGLLKPGGSLKLSCVASGFTFDKYWMHWVRQAPGKGLEWIAEIEYDGTETNYAPSIKDRFTISRDNAKNTLYLQMSNVRSEDAATYFCTTEEMYTTDYYYGFAYWGQGTLVTVSS
VL: B8 VL with D34N
B10: Clone Pi chimeric ROR1 antibody (antibody, V domains shown)
VH: EVQLVESGGGLVQPGRSLTLSCSASGFTFRDYNMAWVRQAPRKGLEWVATISFDDYNTYYRDSVKGRFTISRDDAKSTLYLQMDSLRSEDTATYYCARPGTYWGQGTLVTVSS
VL: DIQLTQSPSSLSASLGDRVSLTCQSSQGIGKYLSWFQHKPGKPPKPVINYATNLADGVPSRFSGRRSGSDFSLTISSLESEDTAIYYCLQFDDFRWTVGGGTKLELK
B11: Clone G3 chimeric ROR1 antibody (antibody, V domains shown)
VH: EVQLQESGPGLVKPAQSLSLTCSVTGYSITNMYRWNWIRKFPGNKLEWMGYINTAGSTDYSPSLRGRVSITGDTSKNQFFLHLTSVTTEDTATYYCAGFITNPFDFWGQGVMVTVSS
VL: DVVMTQTPVSLPVSLGGQVSISCRSSQSLEHSNGDTFLHWYLQKPGQSPRLLIYRVSNRFSGVPDRFSGSGSGTDFTLKISRIEPEDLGDYYCLQSTHFPNTFGAGTKLELK

Columns and labels:
Fz+Kg = target: T1, Fz+Kg (human, UniProt Q01973); test: flow cytometry, transduced SUP-T1 cells, anti-human Fc-Dylight647
T1 construct: also called ROR1 Frizzled+Kringle domains, on transduced SUP-T1 cells
T1 sequence (Q01973 165-391 limits assumed): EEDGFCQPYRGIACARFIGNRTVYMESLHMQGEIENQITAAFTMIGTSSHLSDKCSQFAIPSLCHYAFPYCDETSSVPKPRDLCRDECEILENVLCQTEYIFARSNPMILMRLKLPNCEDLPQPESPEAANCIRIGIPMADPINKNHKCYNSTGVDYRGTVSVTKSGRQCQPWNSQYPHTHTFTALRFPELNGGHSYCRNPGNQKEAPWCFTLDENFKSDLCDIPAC
Description: (§1) FIG. 1A-FIG. 1C: Identification of ROR1 binding domain: FIG. 1A: SUP-T1 cells were transduced with retroviral vectors containing either the full extracellular portion of ROR1 or only one or two extracellular domains. Non-transduced SUP-T1 (SUP-T1 NT) cells served as negative control. FIG. 1B: All 12 chimeric antibodies and FIG. 1C all 10 positive clones in scFv format were incubated with SUP-T1 NT and the new stable cell lines at 4° C. for 30 min. Cells were washed and stained with a secondary antibody (anti-human Fc-Dylight647), which was used as negative control. eROR1=extracellular ROR1, Ig-like=Immunoglobulin-like domain, Fz=Frizzled domain, Kg=Kringle domain.

Kringle (Kg) = target: T2, Kringle (Kg) (human, UniProt Q01973); test: as above
T2 construct: also called ROR1 Kringle domain alone, on transduced SUP-T1 cells
T2 sequence (Q01973 312-391 limits assumed): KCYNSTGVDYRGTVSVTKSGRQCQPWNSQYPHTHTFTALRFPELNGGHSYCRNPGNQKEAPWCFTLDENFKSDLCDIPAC
Description: as §1

[1] = target: T3, ROR1 Frizzled domain alone, on transduced SUP-T1 cells (human, UniProt Q01973 165-299); test: as above
T3 construct: domain: Fz; also called Fz; ROR1-Fz domain
T3 sequence (Q01973 165-299): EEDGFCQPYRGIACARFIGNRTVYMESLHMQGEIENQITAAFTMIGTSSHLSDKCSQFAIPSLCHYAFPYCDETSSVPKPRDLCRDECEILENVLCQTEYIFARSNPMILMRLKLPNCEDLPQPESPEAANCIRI
Description: as §1

[2] = target: T4, Histidine-tagged ROR1 protein (extracellular region) (UniProt Q01973 30-406); test: SPR, Biacore X100; antibody captured by anti-human IgG1 on CM5 chip, His-tagged ROR1 extracellular portion injected at 1.5-100 nM
T4 construct: extracellular domain; also called extracellular portion of ROR1 bearing a Histidine tag; not shown: Histidine tag
T4 sequence (Q01973 30-406): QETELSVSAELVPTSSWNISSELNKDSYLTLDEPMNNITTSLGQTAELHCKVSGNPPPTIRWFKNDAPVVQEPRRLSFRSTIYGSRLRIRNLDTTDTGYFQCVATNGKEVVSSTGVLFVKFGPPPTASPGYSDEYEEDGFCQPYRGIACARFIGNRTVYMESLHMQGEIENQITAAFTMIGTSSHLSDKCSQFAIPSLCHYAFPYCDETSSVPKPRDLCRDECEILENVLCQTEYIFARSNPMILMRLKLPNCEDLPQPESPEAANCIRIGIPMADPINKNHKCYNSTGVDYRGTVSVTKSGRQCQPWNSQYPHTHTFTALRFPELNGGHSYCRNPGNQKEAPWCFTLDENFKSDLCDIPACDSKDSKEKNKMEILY
Description: FIG. 3: KD determination by surface plasmon resonance. Sensorgrams obtained using a Biacore X100 instrument are shown. Briefly, ROR1 antibodies were immobilized using a CM5 chip and seven different concentrations of the Histidine-tagged ROR1 protein (extracellular region) were injected. Concentrations ranged from […].
We undertook surface plasmon resonance evaluation using a Biacore X100 instrument. ROR1 chimeric antibodies were immobilised using an anti-human IgG1 antibody capture kit and a CM5 sensor chip. Seven different concentrations, ranging from 1.5-100 nM, of the extracellular portion of ROR1 bearing a Histidine tag were then injected.

[3] = target: T5, ROR1, full extracellular region, on transduced SUP-T1 cells (UniProt Q01973 30-406); test: flow cytometry, ROR1-transduced cells, single staining; Q1 = ahFc+ only; amFc+ahFc alone Q1 0.060 (FIG. 7A)
T5 construct: extracellular domain; also called eROR1; extracellular ROR1
T5 sequence (Q01973 30-406): as above

[4] = target: T5, ROR1, full extracellular region, on …; test: flow cytometry, ROR1-transduced cells, single staining; Q1 = ahFc+ only; amFc+ahFc alone Q1 0.060
From the text: FIG. 7A-FIG. 7C: Competition assay by flow cytometry. Clone A (SA1) in murine IgG2a, k (mSA1) along with other ROR1 MAbs in human IgG1, k-including previously published 4a5, D10 and R12 clones—were used for staining ROR1-transduced cells. MAb staining was done as FIG. 7A-FIG. 7B: single agents or FIG. 7C: in combination with clone A (mSA1). Anti-human IgG (450) and anti-mouse IgG (DyLight649) were used as secondary antibodies. Combined staining using clones F and mSA1 acted as negative control for overlapping epitopes.
In FIG. 7C, three different columns are presented. Dot plots on the first column correspond to ROR1 binding assessed when SUP-T1 ROR1 cells were stained with clone A (SA1) (mIgG) in the first instance. After a washing step, cells were stained with a competitor antibody (hIgG), followed by another washing step. Both antibodies were then detected by a third staining step using the appropriate secondary antibodies. In the second column, a similar approach was taken when staining these cells, except that this time it was the antibody in hIgG1, k format the one used for the first staining step, followed by clone A (SA1) staining. On the third column, both antibodies were used at the same time.

Row | Binder | binding result (Fz+Kg) | binding result (Kringle (Kg)) | binding result [1] | Kd [2] | koff [2] | kon [2] | Q1 quadrant figure [3] | Q1 quadrant figure [4]
1 | B1 | no binding | no binding | no binding | 2.44 nM | 0.00051 s⁻¹ | 209000 M⁻¹ s⁻¹ |  | 
2 | B2 |  |  |  |  |  |  | 96.9 | 
3 | B3 |  |  |  |  |  |  | 84.3 | 
4 | B4 | no binding | no binding | no binding | 3.5 nM | 0.000607 s⁻¹ | 174000 M⁻¹ s⁻¹ |  | 
5 | B5 | no binding | no binding | no binding | 2.61 nM | 0.000416 s⁻¹ | 159000 M⁻¹ s⁻¹ |  | 96.7
6 | B6 |  |  |  |  |  |  | 96.9 | 
7 | B7 | no binding | no binding | no binding | 1.5 nM | 0.000698 s⁻¹ | 464000 M⁻¹ s⁻¹ |  | 
8 | B8 | no binding | no binding | no binding | 3.35 nM | 0.000835 s⁻¹ | 249000 M⁻¹ s⁻¹ |  | 
9 | B9 | no binding | no binding | no binding | 2.04 nM | 0.000849 s⁻¹ | 417000 M⁻¹ s⁻¹ |  | 
10 | B10 | no binding | no binding | no binding | 1.98 nM | 0.000349 s⁻¹ | 176000 M⁻¹ s⁻¹ |  | 
11 | B11 | no binding | no binding | no binding | 2.45 nM | 0.000266 s⁻¹ | 109000 M⁻¹ s⁻¹ |  | 96.1
